# In patent publication US20220372155A1 (LYVGEN BIOPHARMA, published 2022):
# Molecular target: T1, human CD40 expressed on CHO cells (human, UniProt P25942 21-277)
# T1 construct: whole, on cells; also used for the reporter cells over-expressing human CD40; also called cellular CD40; CHO-CD40 cells
# Experiment: FACS, CHO cells
# T1 sequence (P25942 21-277): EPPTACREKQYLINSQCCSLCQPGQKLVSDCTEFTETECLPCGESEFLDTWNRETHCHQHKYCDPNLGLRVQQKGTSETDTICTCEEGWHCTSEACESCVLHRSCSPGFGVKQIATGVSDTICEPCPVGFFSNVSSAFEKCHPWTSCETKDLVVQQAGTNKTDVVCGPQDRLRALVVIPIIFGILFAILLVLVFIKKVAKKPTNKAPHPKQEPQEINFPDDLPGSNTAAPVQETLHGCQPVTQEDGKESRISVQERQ
row,binding result,Binder
1,binds,"Ly802 (bispecific antibody, human IgG1, kappa, Ly383 HC (IgG1 mutated Fc) + Ly383 LC-TM740 scFv VH-VL) heavy: EVQLQQSGPELVKPGASVKMSCKASGYTFTSYVMHWVKQKPGQGLEWIGYINPYNDGTECTDKFKGKATLTSDKSSSTAYMELSSLTSEDSAVYYCASIYYGYDGTYFGVWGAGTSVTVSSASTKGPSVFPLAPSSKSTSGGTAALGCLVKDYFPEPVTVSWNSGALTSGVHTFPAVLQSSGLYSLSSVVTVPSSSLGTQTYICNVNHKPSNTKVDKKVEPKSCDKTHTCPPCPAPELLGPSVFLFPPKPKDTLMISRTPEVTCVVVDVSHEDPEVKFNWYVDGVEVHNAKTKPREEQYNSTYRVVSVLTVLHQDWLNGKEYKCKVSNKALPAPIEKTISKAKGQPREPQVYTLPPSREEMTKNQVSLTCLVKGFYPSDIAVEWESNGQPENNYKTTPPVLDSDGSFFLYSKLTVDKSRWQQGNVFSCSVMHEALHNHYTQKSLSLSPG light: QIVLSQSPAILSTSPGEKVTMTCRASSSVSYMHWYQQKPGSSPKPWIYATSNLASGVPARFSGSRSGTSYSLTISRVEAEDAATYYCQQWSSNTLTFGGGTKLELKRTVAAPSVFIFPPSDEQLKSGTASVVCLLNNFYPREAKVQWKVDNALQSGNSQESVTEQDSKDSTYSLSSTLTLSKADYEKHKVYACEVTHQGLSSPVTKSFNRGECGGGGSGGGGSGGGGSGGGGSQVQLVESGGGLVQPGGSLKLSCATSGFNFNDYFMNWVRQASGKGLEWVGQIRNKNYNYATYYTESLEGRVTISRDDSKNTAYLQMNSLKTEDTAVYYCTSYYYDGFADYFDYWGQGTTVTVSSGGGGSGGGGSGGGGSGGGGSDIQMTQSPSSLSASVGDRVTITCKASQNIYIYLNWYQQKPGKAPKLLIYNTNNLQTGVPSRFSGSGSGTDFTLTISSLQPEDFATYYCLQHSSRRTFGGGTKVEIK"
2,binds,"Ly803 (bispecific antibody, human IgG1, kappa, Ly383 HC (IgG1 mutated Fc) + Ly383 LC-TM559 scFv VL-VH) heavy: EVQLQQSGPELVKPGASVKMSCKASGYTFTSYVMHWVKQKPGQGLEWIGYINPYNDGTECTDKFKGKATLTSDKSSSTAYMELSSLTSEDSAVYYCASIYYGYDGTYFGVWGAGTSVTVSSASTKGPSVFPLAPSSKSTSGGTAALGCLVKDYFPEPVTVSWNSGALTSGVHTFPAVLQSSGLYSLSSVVTVPSSSLGTQTYICNVNHKPSNTKVDKKVEPKSCDKTHTCPPCPAPELLGPSVFLFPPKPKDTLMISRTPEVTCVVVDVSHEDPEVKFNWYVDGVEVHNAKTKPREEQYNSTYRVVSVLTVLHQDWLNGKEYKCKVSNKALPAPIEKTISKAKGQPREPQVYTLPPSREEMTKNQVSLTCLVKGFYPSDIAVEWESNGQPENNYKTTPPVLDSDGSFFLYSKLTVDKSRWQQGNVFSCSVMHEALHNHYTQKSLSLSPG light: QIVLSQSPAILSTSPGEKVTMTCRASSSVSYMHWYQQKPGSSPKPWIYATSNLASGVPARFSGSRSGTSYSLTISRVEAEDAATYYCQQWSSNTLTFGGGTKLELKRTVAAPSVFIFPPSDEQLKSGTASVVCLLNNFYPREAKVQWKVDNALQSGNSQESVTEQDSKDSTYSLSSTLTLSKADYEKHKVYACEVTHQGLSSPVTKSFNRGECGGGGSGGGGSGGGGSGGGGSDIQMTQSPSSLSASVGDRVTITCLASEDISNDLAWYQQKPGKAPKLLIYFVDRLLDGVPSRFSGSGSGTDFTLTISSLQPEDFATYYCQQSYKYPPTFGQGTKLEIKGGGGSGGGGSGGGGSGGGGSEVQLVESGGGLVQPGGSLRLSCAASGFTFTNYGLHWVRQAPGKGLEWVSSISPSGGVTYYRDSVKGRFTISRDNSKNTLYLQMNSLRAEDTAVYYCAKPFLGWGGANWIAHWGQGTLVTVSS"
3,binds,"Ly804 (bispecific antibody, human IgG1, kappa, Ly383 HC (IgG1 mutated Fc) + Ly383 LC-TM559 scFv VH-VL) heavy: EVQLQQSGPELVKPGASVKMSCKASGYTFTSYVMHWVKQKPGQGLEWIGYINPYNDGTECTDKFKGKATLTSDKSSSTAYMELSSLTSEDSAVYYCASIYYGYDGTYFGVWGAGTSVTVSSASTKGPSVFPLAPSSKSTSGGTAALGCLVKDYFPEPVTVSWNSGALTSGVHTFPAVLQSSGLYSLSSVVTVPSSSLGTQTYICNVNHKPSNTKVDKKVEPKSCDKTHTCPPCPAPELLGPSVFLFPPKPKDTLMISRTPEVTCVVVDVSHEDPEVKFNWYVDGVEVHNAKTKPREEQYNSTYRVVSVLTVLHQDWLNGKEYKCKVSNKALPAPIEKTISKAKGQPREPQVYTLPPSREEMTKNQVSLTCLVKGFYPSDIAVEWESNGQPENNYKTTPPVLDSDGSFFLYSKLTVDKSRWQQGNVFSCSVMHEALHNHYTQKSLSLSPG light: QIVLSQSPAILSTSPGEKVTMTCRASSSVSYMHWYQQKPGSSPKPWIYATSNLASGVPARFSGSRSGTSYSLTISRVEAEDAATYYCQQWSSNTLTFGGGTKLELKRTVAAPSVFIFPPSDEQLKSGTASVVCLLNNFYPREAKVQWKVDNALQSGNSQESVTEQDSKDSTYSLSSTLTLSKADYEKHKVYACEVTHQGLSSPVTKSFNRGECGGGGSGGGGSGGGGSGGGGSEVQLVESGGGLVQPGGSLRLSCAASGFTFTNYGLHWVRQAPGKGLEWVSSISPSGGVTYYRDSVKGRFTISRDNSKNTLYLQMNSLRAEDTAVYYCAKPFLGWGGANWIAHWGQGTLVTVSSGGGGSGGGGSGGGGSGGGGSDIQMTQSPSSLSASVGDRVTITCLASEDISNDLAWYQQKPGKAPKLLIYFVDRLLDGVPSRFSGSGSGTDFTLTISSLQPEDFATYYCQQSYKYPPTFGQGTKLEIK"
4,binds,"Ly805 (bispecific antibody, human IgG1, kappa, Ly387 HC (IgG1 mutated Fc) + Ly387 LC-TM740 scFv VL-VH) heavy: QVQLQQPGAELVKPGASVKLSCKASGYTFTSYWMHWVKQRPGQGLEWIGMIHPNSGGTNYNEKFKGKGTLTVDKSSSTAYMQLSSLTSDDSAVYYCVTSQATWFAYWGQGTLVTVSAASTKGPSVFPLAPSSKSTSGGTAALGCLVKDYFPEPVTVSWNSGALTSGVHTFPAVLQSSGLYSLSSVVTVPSSSLGTQTYICNVNHKPSNTKVDKKVEPKSCDKTHTCPPCPAPELLGPSVFLFPPKPKDTLMISRTPEVTCVVVDVSHEDPEVKFNWYVDGVEVHNAKTKPREEQYNSTYRVVSVLTVLHQDWLNGKEYKCKVSNKALPAPIEKTISKAKGQPREPQVYTLPPSREEMTKNQVSLTCLVKGFYPSDIAVEWESNGQPENNYKTTPPVLDSDGSFFLYSKLTVDKSRWQQGNVFSCSVMHEALHNHYTQKSLSLSPG light: ENVLTQSPAIMSVSPGEKVTMTCRASSSVSSSYLHWYQQKSGASPKFWIYSTSNLASGVPARFSGSGSGTSYSLTISSVEAEDAATYYCQHYSGYPLTFGAGTKLELRRTVAAPSVFIFPPSDEQLKSGTASVVCLLNNFYPREAKVQWKVDNALQSGNSQESVTEQDSKDSTYSLSSTLTLSKADYEKHKVYACEVTHQGLSSPVTKSFNRGECGGGGSGGGGSGGGGSGGGGSDIQMTQSPSSLSASVGDRVTITCKASQNIYIYLNWYQQKPGKAPKLLIYNTNNLQTGVPSRFSGSGSGTDFTLTISSLQPEDFATYYCLQHSSRRTFGGGTKVEIKGGGGSGGGGSGGGGSGGGGSQVQLVESGGGLVQPGGSLKLSCATSGFNFNDYFMNWVRQASGKGLEWVGQIRNKNYNYATYYTESLEGRVTISRDDSKNTAYLQMNSLKTEDTAVYYCTSYYYDGFADYFDYWGQGTTVTVSS"
5,binds,"Ly806 (bispecific antibody, human IgG1, kappa, Ly387 HC (IgG1 mutated Fc) + Ly387 LC-TM740 scFv VH-VL) heavy: QVQLQQPGAELVKPGASVKLSCKASGYTFTSYWMHWVKQRPGQGLEWIGMIHPNSGGTNYNEKFKGKGTLTVDKSSSTAYMQLSSLTSDDSAVYYCVTSQATWFAYWGQGTLVTVSAASTKGPSVFPLAPSSKSTSGGTAALGCLVKDYFPEPVTVSWNSGALTSGVHTFPAVLQSSGLYSLSSVVTVPSSSLGTQTYICNVNHKPSNTKVDKKVEPKSCDKTHTCPPCPAPELLGPSVFLFPPKPKDTLMISRTPEVTCVVVDVSHEDPEVKFNWYVDGVEVHNAKTKPREEQYNSTYRVVSVLTVLHQDWLNGKEYKCKVSNKALPAPIEKTISKAKGQPREPQVYTLPPSREEMTKNQVSLTCLVKGFYPSDIAVEWESNGQPENNYKTTPPVLDSDGSFFLYSKLTVDKSRWQQGNVFSCSVMHEALHNHYTQKSLSLSPG light: ENVLTQSPAIMSVSPGEKVTMTCRASSSVSSSYLHWYQQKSGASPKFWIYSTSNLASGVPARFSGSGSGTSYSLTISSVEAEDAATYYCQHYSGYPLTFGAGTKLELRRTVAAPSVFIFPPSDEQLKSGTASVVCLLNNFYPREAKVQWKVDNALQSGNSQESVTEQDSKDSTYSLSSTLTLSKADYEKHKVYACEVTHQGLSSPVTKSFNRGECGGGGSGGGGSGGGGSGGGGSQVQLVESGGGLVQPGGSLKLSCATSGFNFNDYFMNWVRQASGKGLEWVGQIRNKNYNYATYYTESLEGRVTISRDDSKNTAYLQMNSLKTEDTAVYYCTSYYYDGFADYFDYWGQGTTVTVSSGGGGSGGGGSGGGGSGGGGSDIQMTQSPSSLSASVGDRVTITCKASQNIYIYLNWYQQKPGKAPKLLIYNTNNLQTGVPSRFSGSGSGTDFTLTISSLQPEDFATYYCLQHSSRRTFGGGTKVEIK"
6,binds,"Ly807 (bispecific antibody, human IgG1, kappa, Ly387 HC (IgG1 mutated Fc) + Ly387 LC-TM559 scFv VL-VH) heavy: QVQLQQPGAELVKPGASVKLSCKASGYTFTSYWMHWVKQRPGQGLEWIGMIHPNSGGTNYNEKFKGKGTLTVDKSSSTAYMQLSSLTSDDSAVYYCVTSQATWFAYWGQGTLVTVSAASTKGPSVFPLAPSSKSTSGGTAALGCLVKDYFPEPVTVSWNSGALTSGVHTFPAVLQSSGLYSLSSVVTVPSSSLGTQTYICNVNHKPSNTKVDKKVEPKSCDKTHTCPPCPAPELLGPSVFLFPPKPKDTLMISRTPEVTCVVVDVSHEDPEVKFNWYVDGVEVHNAKTKPREEQYNSTYRVVSVLTVLHQDWLNGKEYKCKVSNKALPAPIEKTISKAKGQPREPQVYTLPPSREEMTKNQVSLTCLVKGFYPSDIAVEWESNGQPENNYKTTPPVLDSDGSFFLYSKLTVDKSRWQQGNVFSCSVMHEALHNHYTQKSLSLSPG light: ENVLTQSPAIMSVSPGEKVTMTCRASSSVSSSYLHWYQQKSGASPKFWIYSTSNLASGVPARFSGSGSGTSYSLTISSVEAEDAATYYCQHYSGYPLTFGAGTKLELRRTVAAPSVFIFPPSDEQLKSGTASVVCLLNNFYPREAKVQWKVDNALQSGNSQESVTEQDSKDSTYSLSSTLTLSKADYEKHKVYACEVTHQGLSSPVTKSFNRGECGGGGSGGGGSGGGGSGGGGSDIQMTQSPSSLSASVGDRVTITCLASEDISNDLAWYQQKPGKAPKLLIYFVDRLLDGVPSRFSGSGSGTDFTLTISSLQPEDFATYYCQQSYKYPPTFGQGTKLEIKGGGGSGGGGSGGGGSGGGGSEVQLVESGGGLVQPGGSLRLSCAASGFTFTNYGLHWVRQAPGKGLEWVSSISPSGGVTYYRDSVKGRFTISRDNSKNTLYLQMNSLRAEDTAVYYCAKPFLGWGGANWIAHWGQGTLVTVSS"
